Marks after values point to notes of the source that are not given here. Ends that are not written are not given here.
Key:
Type in all cases: physicochemical
[1] = Hydrodynamic radii by NMR diffusion measurements (pulse field gradient); details: 10 mg/mL peptide in 50% acetonitrile
Method: All NMR spectra were acquired at ^1H frequencies of 500 or 600 MHz on homebuilt NMR spectrometers at the Oxford Centre for Molecular Sciences. One dimensional (1D) spectra typically contain 8K complex data points. Two dimensional (2D) experiments were acquired with 2K complex data points in the t2 dimension, and in phase-sensitive mode using time proportional phase incrementation (TPPI) for quadrature detection in t1. Diffusion constants were determined using pulse field gradient experiments with 8K complex points. Spectral widths of 8,000 Hz were used for all experiments. […] The water signal was suppressed either by using presaturation during the 1.2 s relaxation delay or by using a gradient double echo. […] Data were processed using Felix 2.3 (BIOSYM) on Sun workstations. Typically, the data were zero filled once, and processed with a double exponential window function for the 1D, and a sinebell squared function, shifted over 90° for each dimension of the 2D spectra. All spectra were referenced to an internal standard of dioxan at 3,743 ppm.

[2] = Congo red binding assay of amyloid fibril formation (CspB peptides); design: key: (++) strongly positive; (+) weakly positive; (0) no positive evidence
Method: For the congo red binding assay of fibril formation, absorption spectra of a 10 μM solution of the dye in the assay buffer (5 mM phosphate pH 7.41 […]) before and after addition of the peptide solution were recorded on a Perkin Elmer (Foster City, Calif.) Lambda 16 spectrometer in the range of 400 to 700 nm.
Analysis by three independent techniques of samples produced by dilution of concentrated solutions of all three peptides ([…]) from 50% to either 10 or 90% acetonitrile was carried out to screen for the presence of amyloid fibrils.
(§1) Aggregated states of all three peptides produced in 10 and 90% acetonitrile were analysed using these techniques.

[3] = Transmission electron microscopy screen for amyloid fibrils (CspB peptides); design: key: (++) strongly positive; (+) weakly positive; (0) no positive evidence; details: 2.0 mg/mL peptide
Method: Fibril formation and morphology were examined by transmission electron microscopy (EM). Peptide samples were dried onto formvar-and carbon-coated grids and negatively stained with 1% phosphotungstic acid (PTA). Grids were examined in a JEOL JEM-1010 electron microscope at 80 kV excitation voltage.
(§2) Analysis by three independent techniques of samples produced by dilution of concentrated solutions of all three peptides (10.0 mg/mL diluted to 2.0 mg/mL final concentration) from 50% to either 10 or 90% acetonitrile was carried out to screen for the presence of amyloid fibrils.
as §1

[4] = Light microscopy of congo red stained precipitates, green birefringence (CspB peptides); design: key: (++) strongly positive; (+) weakly positive; (0) no positive evidence; details: 2.0 mg/mL peptide
Method: Yellow green birefringence indicates the presence of cross […].
as §2, §1

[5] = β-sheet content from CD ellipticity at 215 nm; details: 0.4 mg/mL
Method: CD spectra were recorded on a Jasco J720 spectropolarimeter using quartz cuvettes of 1 mm pathlength, at 1 nm intervals from 195 to 250 nm. Routinely, CD samples were examined 30 min after dilution from the peptide stock solution containing 50% acetonitrile.
Calculation of the β-sheet content was carried out using the ellipticity at 215 nm normalized to a per residue basis (units: deg cm^2/dmol).

[6] = 1D NMR estimate of percentage of peptide visible in solution; details: 10 mg/mL in 50% acetonitrile
Method: A series of 1D spectra was used to estimate the percentage of peptide visible by solution NMR. These 1D spectra were all acquired with a gain of 7,000 and 256 scans on the same 500 MHz NMR spectrometer, in consecutive experiments. The concentration of a tryptophan solution was calculated from its absorbance at 280 nm. The integration of the indole resonances in these ID spectra from the tryptophan and peptide solutions was used to estimate the concentration of the peptide solutions.
Any small oligomers (whose signals merge with the monomer signal if conformational interconversion takes place on a time scale shorter than that resolvable by this method, i.e. less than ˜100 ms) can only exist as minor populations. […] The remainder must therefore be in large soluble aggregates whose overall tumbling times are too large to give resolvable NMR […].

[7] = Solubility in aqueous buffer or acetonitrile cosolvent; details: aqueous buffer; aqueous buffers, pH 6.0 to 7.2, no cosolvent; read-out: Solubility under similar conditions (aqueous buffers)
Method: In contrast, none of the three peptides are soluble under similar conditions to any significant extent; CspB-2, for example, dissolves only to ˜0.2 mg/mL. To solubilize the peptides, acetonitrile was used as a cosolvent at pH 4.0 (formic acid, unbuffered). […] A standardized set of combinations of peptide concentration and solvent composition was used, involving peptide concentrations of 0.4, 2 and 10 mg/mL, and acetonitrile concentrations of 10, 50 and 90%.

[8] = Thioflavin T assay of muscle acylphosphatase aggregate; details: aggregate after two weeks in 25% v/v TFE, pH 5.5, 25° C.
Method: (§3) Muscle acylphosphatase was purified as previously reported (A. Modesti et al. (1995) Protein Express Purif. 6, 799) and incubated at a concentration of 0.375 mg/ml (34 μM) in 25% v/v trifluoroethanol (TFE), acetate buffer, pH 5.5 at 25° C. under constant stirring. Aliquots were withdrawn at regular time intervals for electron microscopy and spectroscopic analysis. Circular dichroism spectra were acquired directly by means of a Jasco J-720 spectropolarimeter and cuvettes of 1 mm path length. Electron micrographs were acquired by a JEM 1010 transmission electron microscope at 80 kV excitation voltage. A 3 μL sample of protein solution was placed and dried for five minutes on a Formvar and carbon-coated grid. The sample was then stained with 3 μL 1% phosphotungstic acid solution and observed at magnifications of 25-100k.
(§4) Thioflavin T and Congo Red assays were performed according to Le Vine III (H. Le Vine III (1995) Amyloid: Int. J. Exp. Clin. Invest. 2,1.) and Klunk (W. E. Klunk et al. (1989) J. Histochem. Cytochem. 37, 1293), respectively. For Congo Red birefringence experiments aliquots of protein were air dried onto glass slides. The resulting films were stained with a saturated solution of Congo red and sodium chloride, corrected to pH 10.0 with 1% sodium hydroxide. The stained slides were examined by an optical microscope between crossed polarizers.

[9] = Congo Red absorption and birefringence of muscle acylphosphatase aggregate
Method: as §3, §4

[10] = 10% acetonitrile, first experiment, 1.6 mg/mL peptide
[11] = 10% acetonitrile, second experiment, 2.0 mg/mL peptide
[12] = 90% acetonitrile, first experiment, 1.6 mg/mL peptide
[13] = 90% acetonitrile, second experiment, 2.0 mg/mL peptide
[14] = 10% acetonitrile, first experiment
[15] = 90% acetonitrile, first experiment
[16] = 90% acetonitrile, second experiment

Row | Molecule | Hydrodynamic Stokes radius [1] | Amyloid fibril formation, Congo Red [2, 10] | Amyloid fibril formation, Congo Red [2, 11] | Amyloid fibril formation, Congo Red [2, 12] | Amyloid fibril formation, Congo Red [2, 13] | Amyloid fibril formation, EM ([3]; 10% acetonitrile) | Amyloid fibril formation, EM ([3]; 90% acetonitrile) | Amyloid fibril formation, LM green birefringence [4, 14] | Amyloid fibril formation, LM green birefringence ([4]; 10% acetonitrile, second experiment) | Amyloid fibril formation, LM green birefringence [4, 15] | Amyloid fibril formation, LM green birefringence [4, 16] | β structure content (CD) ([5]; 90% acetonitrile) [%] | Total peptide concentration detectable in the NMR spectra [6] [%] | solubility [7] [µg/mL] | β-sheet content (CD) ([5]; 2.5% acetonitrile) [%] | β-sheet content (CD) ([5]; 15 to 70% acetonitrile) [%] | β-sheet content (CD) ([5]; 97.5% acetonitrile) [%] | Increase of the 482 nm fluorescence (excitation 440 nm) of Thioflavin T [8] | Congo Red birefringence under cross-polarised light ([9]; fibrils after two weeks of incubation) | Congo Red difference spectrum, maximum intensity ([9]; spectrum of aggregate plus dye minus aggregate alone and dye alone) [nm]
1 | CspB-1: peptide, residues 1-22 of B. subtilis cold shock protein CspB, corresponding to the first two β-strands (MLEGKVKWFNSEKGFGFIEVEG; UniProt P32081 1-22, looked up, fragment) | 1.60^a nm | ++, ++ | ++, ++ | ++ | 0 | ++ | 0 | ++, ++ | ++, ++ | ++, ++ | ++, ++ | ~70 | ~20 |  |  |  |  |  |  | 
2 | MLEGKVKWFNSEKGFGFIEVEGQDDVFVHFSAIQG [CspB-2] | 1.68 nm | ++ | 0 | 0 | ++ | ++ | ++ | + |  | ++ | 0 |  |  | ~200 | 100 | ~20 | 71.5 |  |  | 
3 | muscle acylphosphatase: human muscle acylphosphatase protein, forms amyloid fibrils in 25% v/v trifluoroethanol (protein, UniProt P14621 2-99, looked up) Acylphosphatase-2: STAQSLKSVDYEVFGRVQGVCFRMYTEDEARKIGVVGWVKNTSKGTVTGQVQGPEDKVNSMKSWLSKVGSPSSRIDRTNFSNEKTISKLEYSNFSIRY |  |  |  |  |  |  |  |  |  |  |  |  |  |  |  |  |  | three fold increase | characteristic green birefringence | 540
